Entries after “also recorded” stand apart in the source; their conditions may differ.
What was measured:
[1] = system: gene conversion (HR) in U2OS DR-GFP cells; test: Direct-repeat (DR)-GFP gene conversion assay; format: cell-based, human
Protocol: FIG. 4. Activation of HR by i53. FIG. 4A, Schematic of the DR-GFP assay. FIG. 4B. U2OS DR-GFP cells were transfected with the vectors expressing i53, the DM mutant or an empty vector control (EV) along with an I-Scel expression vector. The percentage of GFP-positive cells was determined 48 h post-transfection for each condition and was normalized to the empty vector condition (mean±s.d., N=4). FIG. 4C, U2OS DR-GFP were first transfected with siRNAs targeting the 53BP1 or BRCA1 mRNAs along with a non-targeting siRNA (CTRL). 24 h post-transfection, cells were transfected with the I-SceI expression vector and the percentage of GFP-positive cells was determined 48 h post-siRNA transfection for each condition. The values were normalized to the empty vector condition and presented as the mean±s.e.m; N=4. FIG. 4D, Schematic of the gene targeting assay. FIG. 4E, Gene targeting efficiency at the LMNA locus in parental or 53BP1Δ U2OS cells following transfection with vectors expressing Flag-tagged i53 or its DM mutant or an empty vector control (EV). The DNA-PK inhibitor NU7441 was also added where indicated. 24 h post-transfection, cells were analysed for mClover fluorescence. Individual experiments are presented with the error bar representing the s.d., (N=3). FIG. 4F, Gene targeting at the LMNA locus in G 1-arrested parental (WT) or 53BP1Δ U2OS cells transfected with vectors expressing Flag-tagged i53 or its DM mutant or an empty vector control (EV). The DNA-PK inhibitor NU7441 was also added in the indicated conditions. 24 h post-transfection, cells were analysed for mClover fluorescence. Individual experiments are present with the error bar representing the s.d., (N=3).
The direct repeat (DR)-GFP assay to measure the frequency of HR and the strand annealing EJ2-GFP assay to measure the frequency of MMEJ were performed as previously described. Briefly, U2OS DR-GFP or U2OS EJ2-GFP cells were transfected with 10 nM siRNA (Dharmacon) using Lipofectamine RNAiMAX (Invitrogen). 24 h later, the cells were transfected with the pCBASceI plasmid (Addgene #26477) and plasmids, using Lipofectamine 2000 (Invitrogen). 48 h post-plasmid transfection, the cells were trypsinized and the percentage of GFP-expressing cells was analyzed using the BD FACSCalibur flow cytometer.
AAV-293 cells (Agilent) were transfected with pAAV expression, pDJ and pHelper constructs (Cell Biolabs, Inc., USA) in equal amounts using PEI to produce AAV-DJ expression viruses. 48-72 h later, the viral supernatant was used to transduce target cells for 24 h, and assays were initiated a further 24 h later.

PHB = target: T1, PHB (Homo sapiens, UniProt P35232); test: Flag IP-MS of i53/i53-DM baits: prey PHB; format: binding; conditions: 293T Flp-In/T-Rex extracts, LC-MS/MS, one column per replicate IP
T1 construct: endogenous in cells; host or cells: HEK293 Flp-In/T-REx
T1 sequence (P35232 1-272): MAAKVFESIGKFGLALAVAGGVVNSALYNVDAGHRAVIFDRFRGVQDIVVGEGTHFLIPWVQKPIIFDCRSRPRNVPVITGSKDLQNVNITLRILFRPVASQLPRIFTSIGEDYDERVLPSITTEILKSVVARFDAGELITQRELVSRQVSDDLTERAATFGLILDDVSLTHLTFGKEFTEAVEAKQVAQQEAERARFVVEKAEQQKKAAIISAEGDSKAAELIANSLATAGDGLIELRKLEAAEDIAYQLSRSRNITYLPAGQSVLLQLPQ
Protocol: Following immunoprecipitation of Flag-tagged i53 and i-53-DM from HEK293 Flp-In/T-REx cells, peptides were identified using LC-MS/MS. Proteins were digested in solution with trypsin (Sigma, T7575-1KT) and dried to completeness. For LC-MS/MS analysis, peptides were reconstituted in 5% formic acid and loaded onto a 12-15 cm fused silica column with pulled tip packed in-house with 3.5 μm Zorbax C18 (Agilent Technologies, Calif., USA).
i53 and i53-DM precipitates were analyzed using an LTQ (Thermo Scientific) coupled to an Agilent 1100 Series HPLC (Agilent Technologies). Peptides were eluted from the column using a 90 min period cycle with a linear gradient from 0% to 40% ACN in 0.1% formic acid. Tandem MS spectra were acquired in a data-dependent mode for the top 5 (LTQ) most abundant ions using collision-induced dissociation. Acquired spectra were searched against the human Refseq_V53 database using Mascot (Matrix Science).
293T Flp-In/T-Rex cell lines were generated that expressed Flag-tagged i53 or i53-DM under the control of a tetracycline-inducible promoter as previously described. Nine IP-MS experiments were analyzed (3 biological replicate IPs each for control i53- and i53-DM expressing cell lines). The interacting proteins were identified by MASCOT to identify high-confidence interactors for i53. […]

## i53: UbvG08 with C-terminal di-glycine removed and I44A mutation; genetically encoded inhibitor of 53BP1
[1]; AAV-DJ delivery, versus Flag-i53-DM
  Homologous recombination in DR-GFP gene conversion assay after AAV-mediated delivery: stimulate homologous recombination
[1]; SCR7 at 1 μM, i53 by plasmid expression
  Gene conversion in DR-GFP assay (comparison in words): more potent inducer of gene conversion; also recorded: stimulated gene conversion more than 53BP1 depletion by siRNA
PHB
  Total peptides, PHB: 2

— patent publication US10808017B2, “Ubiquitin variants and uses therof as 53BP1 inhibitors” (The Governing Council of the University of Toronto, priority 2016, dated 2020)
